{"source": "patent US20240269196A1", "about": "“RESPIRATORY TREATMENTS USING SALMONID OIL COMPOSITIONS” (Hofseth Biocare ASA, priority 2020, published 2024)", "molecules": {"B1": {"name": "Apolipoprotein A-IV (protein, UniProt P06727 21-396, looked up)", "Apolipoprotein A-IV": "EVSADQVATVMWDYFSQLSNNAKEAVEHLQKSELTQQLNALFQDKLGEVNTYAGDLQKKLVPFATELHERLAKDSEKLKEEIGKELEELRARLLPHANEVSQKIGDNLRELQQRLEPYADQLRTQVSTQAEQLRRQLTPYAQRMERVLRENADSLQASLRPHADELKAKIDQNVEELKGRLTPYADEFKVKIDQTVEELRRSLAPYAQDTQEKLNHQLEGLTFQMKKNAEELKARISASAEELRQRLAPLAEDVRGNLRGNTEGLQKSLAELGGHLDQQVEEFRRRVEPYGENFNKALVQQMEQLRQKLGPHAGDVEGHLSFLEKDLRDKVNSFFSTFKEKESQDKTLSLPELEQQQEQQQEQQQEQVQMLAPLES", "notes": "positive control protein"}}, "key": {"[1]": {"test_system": "eosinophils in healthy donor PMNL samples", "test": "Shape change assay: CCL11-stimulated eosinophil shape change in PMNL, flow cytometry (FSC)", "assay_type": "cell-based, human", "details": "Example 1, 3 μg/mL ApoA-IV pretreatment 30 min", "procedure": "(§1) PMNL samples were pretreated with 3 μg/mL ApoA-IV (positive control), 100 μg/mL SO, and formulation vehicle (negative control) for 30 minutes and stimulated with serial dilutions of CCL11 for 20 minutes at 37° C. Shape change was monitored by flow cytometry as the increase of forward scatter (FSC) and was expressed as percent of the vehicle response. Note, eosinophils are distinguishable from neutrophils by their SSC properties and autofluorescence.\n(§2) The chemotactic factor, CCL11, was used to prime eosinophils to immediately prepare for diapedesis through the endothelium by rearranging their cytoskeleton. This morphological change was detected by flow cytometry as an increase in the forward scatter properties of these cells. The effects of SO at 100 μg/mL was studied and compared to the known effect of 3 μg/mL ApoA-IV on eosinophil shape change in healthy donor PMNL samples. The pretreated samples were stimulated with serial dilutions of CCL11, and shape change was monitored by flow cytometry.\nas §1, with “with” for “with 3 μg/mL ApoA-IV (positive control),”, “SO, heat, acid and base treated SO, krill oil, standard 18/12 fish oil,” for “SO,”, “Eosinophils were” for “Note, eosinophils are”, “auto-fluorescence.” for “autofluorescence.”\nas §2, with “various processing treatments on SO, krill oil and standard 18/12 fish oil” for “known effect of 3 μg/mL ApoA-IV”"}, "[2]": {"test_system": "CD11b on eosinophils (PMNL surface)", "test": "CD11b (integrin) upregulation assay, CCL11-stimulated PMNL, flow cytometry", "assay_type": "cell-based, human", "details": "Example 1, 3 μg/mL ApoA-IV pretreatment 30 min", "procedure": "(§3) PMNL samples were pretreated with 3 μg/mL ApoA-IV (positive control), 100 μg/mL SO, and formulation vehicle (negative control) for 30 minutes and incubated with serial dilutions of CCL11 for 30 minutes at 37° C. Samples were stained with anti-CD16-PE-Cy5 and anti-CD11b-PE (ICRF44) antibodies. Eosinophils were identified as CD16 negative cells. CD11b upregulation was analyzed by flow cytometry.\nA precondition for eosinophil migration is upregulation of adhesion molecules such as the αmβ2 integrins (CD11b/CD18).\nas §3, with “with” for “with 3 μg/mL ApoA-IV (positive control),”, “SO, heat, acid and base treated SO, krill oil, standard 18/12 fish oil,” for “SO,”"}, "[3]": {"test_system": "allergic human eosinophils", "test": "Apoptosis assay (Annexin V-FITC, flow cytometry)", "assay_type": "cell-based", "details": "Example 1; 3 μg/mL ApoA-IV; 18 hr incubation; IL-5 50 pM", "procedure": "(§4) The allergic human eosinophils were placed in RPMI 1640 medium supplemented with IL-5 (50 pM), 1% FBS and PenStrep in the presence of 3 μg/mL ApoA-IV (positive control), 100 μg/mL SO, and formulation vehicle (negative control). Aliquots were removed after 18 hr incubation, washed twice in PBS, and resuspended in binding buffer. The eosinophil cells were stained using the Annexin V-FITC Apoptosis Detection Kit I, (Sigma Aldrich) and immediately analyzed by flow cytometry. Each sample was acquired for 1 min, and the total number of eosinophils gated on a forward scatter/side scatter plot and the percentage of live cells (annexin Vneg) and apoptotic cells (annexin Vpos) was recorded.\nas §4, with “of” for “of 3 μg/mL ApoA-IV (positive control),”, “SO, heat, acid and base treated SO, krill oil, standard 18/12 fish oil,” for “SO,”, “Aliquots were removed after 18 hr incubation, washed twice in PBS, and resuspended in binding buffer.” left out, “recorded. […]” for “recorded.”"}, "[4]": {"test_system": "House Dust Mite (HDM) extract-induced murine asthma model", "test": "House Dust Mite (HDM) extract-induced murine asthma model: BAL fluid and spleen cellularity", "assay_type": "in vivo, mice", "details": "5 μg/animal, day 7 to day 14, N=5; for Percent eosinophil in spleen tissue (Mean): spleen on day 15", "procedure": "For this purpose, normal saline (NS) was used as a vehicle control and Apolipoprotein A-IV (ApoA-IV) was used as a positive control, respectively. The study involved induction of asthmatic condition in mice using HDM extract and simultaneous evaluation of the effects of OmeGo Salmon oil (CARDIO softgels; 20 or 60 μg/animal) and ApoA-IV (5 μg/animal; as a positive control) on cosinophil modulation in mice.\nOn day 1, all 20 mice were anesthetized and sensitized intranasally with 1 μg HDM protein in 40 μL PBS. From day 7 to day 11, all 20 mice were challenged by daily intranasal application of 10 μg HDM protein in 40 μL PBS. Mice were randomly divided into four groups with five mice in each group for differential treatment from day 7 to day 14. From day 7 to day 14, each animal in the first group (G1) received 100 μL NS; each animal in the second group (G2) received 20 μg CARDIO in 100 μL NS; each animal in the third group (G3) received 60 μg CARDIO in 100 μL NS; and each animal in the fourth group (G4) received 5 μg ApoA-IV in 100 μL NS.\nThe Broncho-Alveolar Lavage (BAL) fluid and spleen were collected from all 20 mice on day 15, and cellularity of the collected samples were analyzed by flow cytometry."}}, "data": [{"molecule": "B1", "values": [{"measurement": "Shape change (100% as baseline) of PMNL", "setting": "[1]; CCL11 0.05 nM", "value": 100, "unit": "%"}, {"measurement": "Shape change (100% as baseline) of PMNL", "setting": "[1]; CCL11 0.10 nM", "value": 103, "unit": "%"}, {"measurement": "Shape change (100% as baseline) of PMNL", "setting": "[1]; CCL11 0.25 nM", "value": 105, "unit": "%"}, {"measurement": "Shape change (100% as baseline) of PMNL", "setting": "[1]; CCL11 0.50 nM", "value": 106, "unit": "%"}, {"measurement": "Shape change (100% as baseline) of PMNL", "setting": "[1]; CCL11 0.75 nM", "value": 108, "unit": "%"}, {"measurement": "Shape change (100% as baseline) of PMNL", "setting": "[1]; CCL11 1.00 nM", "value": 109, "unit": "%"}, {"measurement": "Shape change (100% as baseline) of PMNL", "setting": "[1]; CCL11 2.50 nM", "value": 109, "unit": "%"}, {"measurement": "Shape change (100% as baseline) of PMNL", "setting": "[1]; CCL11 5.00 nM", "value": 107, "unit": "%"}, {"measurement": "CB11b change (100% as baseline) on PMNL surface", "setting": "[2]; CCL11 0.01 nM", "value": 95, "unit": "%"}, {"measurement": "CB11b change (100% as baseline) on PMNL surface", "setting": "[2]; CCL11 0.50 nM", "value": 103, "unit": "%"}, {"measurement": "CB11b change (100% as baseline) on PMNL surface", "setting": "[2]; CCL11 1.00 nM", "value": 122, "unit": "%"}, {"measurement": "CB11b change (100% as baseline) on PMNL surface", "setting": "[2]; CCL11 2.50 nM", "value": 125, "unit": "%"}, {"measurement": "CB11b change (100% as baseline) on PMNL surface", "setting": "[2]; CCL11 5.00 nM", "value": 125, "unit": "%"}, {"measurement": "CB11b change (100% as baseline) on PMNL surface", "setting": "[2]; CCL11 10.00 nM", "value": 114, "unit": "%"}, {"measurement": "percentage of apoptotic cells (annexin Vpos)", "setting": "[3]", "value": "60±3.8", "unit": "%"}, {"measurement": "percentage of live cells (annexin Vneg)", "setting": "[3]", "value": "31.5±2.3", "unit": "%"}, {"measurement": "Cell count in BAL fluid: Eosinophil count (Mean)", "setting": "[4]; BAL on day 15", "value": 28220}, {"measurement": "Percent eosinophil in spleen tissue (Mean)", "setting": "[4]", "value": 2.34, "unit": "%"}, {"measurement": "Percent eosinophil in spleen tissue (Mean)", "setting": "[4]; listed as ApoA-IV", "value": "significantly decreased"}]}]}
